{"source": "paper PMC2844784", "about": "(Cell host & microbe, 2010)", "binders": {"B1": {"name": "full-length synthetic Tat protein (aa 1-72) (natural protein)", "chain": "MEPVDPRLEPWKHPGSQPKTACTNCYCKKCCFHCQVCFITKALGISYGRKKRRQRRRAHQNSQTHQASLSKQ"}}, "molecular_target": "T1, recombinant Set7/9-KMT7 (UniProt Q8WTS6 1-366)", "T1 sequence (looked up)": "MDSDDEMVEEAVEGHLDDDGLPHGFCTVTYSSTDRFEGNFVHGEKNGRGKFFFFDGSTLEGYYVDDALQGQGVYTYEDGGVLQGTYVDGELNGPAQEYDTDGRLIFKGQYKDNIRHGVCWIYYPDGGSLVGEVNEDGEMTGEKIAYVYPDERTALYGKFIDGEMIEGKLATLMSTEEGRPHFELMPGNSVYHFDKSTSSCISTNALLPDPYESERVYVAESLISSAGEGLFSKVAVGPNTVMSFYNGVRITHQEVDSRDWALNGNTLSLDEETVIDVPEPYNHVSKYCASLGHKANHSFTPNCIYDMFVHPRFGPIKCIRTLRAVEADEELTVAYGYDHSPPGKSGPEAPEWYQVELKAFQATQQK", "assay": "in vitro binding reaction", "data": [{"binder": "B1", "values": [{"measurement": "binding result", "value": "binds"}]}]}
